Results: the nanobody polyreactivity screen of Harvey et al. (2022)

Assay: yeast display, Sf9 membrane polyspecificity reagent, FACS + sequencing; frameworks hold sequencing errors
Outline: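 After 36–48 hours of galactose induction, yeast (Saccharomyces cerevisiae BJ5465) displaying a synthetic nanobody library were stained at 4 °C for 1 hour with 10% biotinylated, detergent-solubilized Sf9 membrane reagent. Streptavidin microbeads enriched the stained cells before FACS sorting into low and high (top ~1%) gates on anti-HA and streptavidin fluorescence. Each clone's polyreactivity label reflects its gate of origin.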

Row | Sequence | polyreactivity (PSR sort gate)
1 | QVQLVESGGGLVQAGGSLRLSCAASGGTFVFYAMGWYIQAPGKERELVAAISSAGRTYYADAVKGRFTISRDNAKTTVYLQMNSLKPEETAVYYCAAVSSQYDGRYYYWGQGTQVTVSS | high polyreactivity
2 | QVQLVESGGGLVQAGGSLRLSCAASGSTISGYAMGWYRQAPGKERELVATISRGGSTNYADSVKGRFTISRDNAKNTVYLQMNSLKPEDTAVYYCAAQTYVWWVKYHSWGQGTQVTVSS | low polyreactivity
3 | QVHLVESGGVLVQAGGSLRLSCAASGFILYFNAMGWYIQAPGKERELVAVNTFRSGSTYYADSVKGRFTISRDNAKNTVNLQMNSLKPEDTAVYYCNAQSVLLSLRVELREPHEYWGHGTQVTVSS | low polyreactivity
4 | QVQLVESGGGLVQAGGSLRLTCAASGSTIGGNPMVCYRHAPGKERELVAAITFSGGSTSYADSVKGRFTISRDNAKNTVYLQMNSLKPEDTAVYYCAASWVYPYDYWRQGTQVTVSS | low polyreactivity
5 | QVQLVESGGGLVQAGGSLRLSCAASGSIFPVYAMGWYRQAPGKDRELVAAISFSTGSTYYADSVKGRFTISRDNAKNTVYLQMNSLKPEDTAVFYCAKYDYTDYEYWGQGTQVTVSS | high polyreactivity
6 | QVQLEESGGGLVQAGGSLRLICAASGCIFEYNAMGWSRQAPRKEREFVAAINNSGGRTYYADSVKGRFTISRDNANNTVYLQMNSLKPEDTAVYYCAVYSYYRRTYRREMDYWGQGTQVTVSS | high polyreactivity
7 | QVQLVESGGGLVQAGGSLRLSCAASGRIFVSYAMGWYRQAPGKERELVADMSWSGSITYYADSVKGRFTISRDNAKNTVYLQMNSLKPEDTAVYYCAKKSIYDYSTTYPEYDYWGQGTQVTVSS | low polyreactivity
8 | QVQIVESGGGLVQAGGSLRLSCAASGRIFGYNTMGWYRQAPGKERELVASISYYGGGPYYADSVKGRFTISRDLAKYTFYLQMNSLKPEDTAVYYCNALSYGYDDAYGYWGQGTQVTVSS | low polyreactivity
9 | QVQLVESGGGLVQTGGSLRLSCAASGFNFYINAMGWYRQAPVKERELVAAINWRTGSTYYADSVKGRFTISRDNAKNTVYLQMNSLKQEDTAVYYCAAYGYWRRADTEFDYWGQGTQVTVSS | low polyreactivity
10 | QVQLVESGGGLVQAGGSLRISCAASGFTFGPYDMGWYRQAPGKERELVAAITDSSGSTHYADSVKGRFTISRDNAKNTVYFQMNSLKPEDTAVYTCAADDSSRTTYYYWGQGTEVTVSS | low polyreactivity
11 | QVQLVESGGGLVQAGGSLRLSCAASGSTFGGNGMGWYRQAPGKEREFVATITWRSGSTYYADSVKGRFTISRDKAKNTVYLKMNILKPEDSAVYYCAKYTSSRRNTWYYYWGQGTEVTVSS | high polyreactivity
12 | QVQLVESGGGLVQAGGSLRLSCAASGSTFRRYAMGWYRQAPGKERELVAAIRQRGTSTYYADSVKGRFTISRDNAKNTVYLQMNSLKPEDTAVYYCAAGPSLWLFNSWGQGTQVTVSS | high polyreactivity
13 | QVQLVESGGGLVQAGGSLRLSCAASGSIFLLYAMGWYRQAPGKERELVARISWSGDNTRYADSVKGRFTISRDNAKNTVFLQMNSLKPEDTAVYYCNAYYFYGQWKGYDYWGQGTQVTVSS | low polyreactivity
14 | QVQLVESGGGLLQAGGSLRLSCAASGSTSPANAMGWYRQAPGKERELVAVINSGGGTNYADSVKGRFTISRDNAKNTVYLQMNCLKPEDTAVYYCAKGYRRSFIGYWYLKYGYWGQGSQVTVSS | high polyreactivity
15 | QVQLVESGGGLFQAGGSLRLSCAASGSTFPYNAMGGYRQAPGKERELVAAINSGATTYYADSVKGRFTISRDNAKNTVYLQMNSLKPEDTAVYYCAAEGYASSSEYDYWGQGTQVTVSS | low polyreactivity
16 | QVQLVESGGGLVQAGGSLRLSCAASGRTFRYYTMGWYRQAPGKEREFVAAISSTGGTYYADSVKGRFTISRDNAKNTVYLQMNRLKPEDSAVYYCAATFIQVVVNVQLYDYDYWGQGTQVTVSS | low polyreactivity
17 | QVQLQESGCGLVQAGGSLRLSCAASGNIFEADIMGWYHQAQGKERELVASITDGGSTNYADSVKGRFTINRDNAKNNVYLQMNSLKPEDTAVYSCAAIAYPDIPTYFDYDSDYFYWGQGTQVTVSS | high polyreactivity
18 | QVQLVESGGGLVQAGGSLRLSCAASGSIFWWNAMGWYRQAPGKERELVGAITVSGSSTHYADSVKGRFTISRDNAKNTVYLQMNSMKPEDTAVYYWGQGTQVTVSS | low polyreactivity
19 | QVQLVESGGGLVQAGGSLRLSCSASGIIFPTYAMGLYRQAPGKERELVAAIRWTGGSTYYADSVKGRFTISRDNAKNTVYLQMNSLKPEDTAVYYCAAAYRGRYKYYYWGQGTQVTVSS | high polyreactivity
20 | QVQLVESGGGLVQAGGSLRLSCAASGRIFRVYAMGWYRQAPGKERELVASISSGGSTNYADSVKGRFTISRENAKNTVYLQMNSLKPEDTAVYYCAADYWYRLFWYYGAPLDYWGQGTQVTVSS | low polyreactivity
21 | QVQLVESGGGLVQAGGSLRIICAASGSIFARNAMGWYRQAPGKERELVASITWSGASTYDADSVKGRFTISRDNAMNTVYLQMNSLKPEDTAVYYCAATDQILSLDYSSYEYLGQGTQVTVSS | low polyreactivity

Row | Sequence | polyreactivity (PSR sort gate)
22 | QVQLVESGGGLVQAGGSLRLSCAASGRIFQRYAMGWYRPAPGKERELVAAISSRGGRTFYADSVKGRFTISRDNAMYSVYLQMNSLKPEDSAAYYCAATATVGSVTFDYWGQGTQVSVSS | high polyreactivity
23 | QVQLVESGGGLVQAGGSLRLSCAASGFTFRYYTMGWYRQAPGKERELVARITTGGSTYYADPVKGRFTISRDNAKKTVYLQMNSLKPEDTAVYFCAARLSRWWPPTGVHYTDRYYWGQGTQVTVSS | high polyreactivity
24 | QVQLVESGGGLVQAGGSLRLSCADSGNIFGTYAMGWSRQAPGKERELVANISNDDRTNYADSVKGRFTISRDNAKNTVYLQMNSLKPEDTAVYYCAVEYPSIAYRKSSKTFDYWGQGTQVTVSS | low polyreactivity
25 | QVQLVESGGGLVQAGGSLRLSCAASGFTFRYYTMGWYRQAPGKERELVASITWRGGSTYYADSVKARFTISRDNAKNTVYLQMNSMKPEDTAVYYCNAERPYQYYPGIYRWYYYWGQGTQVTVSS | low polyreactivity
26 | QVQLVESGGGLVQAGGSLRLSCAASGSTFRWNAMGWYRQAPWKERELVAAITWSGGRTYYADSVKGRFTISRDNAKNTVYLQMNSLKPEDTAVYYCAAVRGPEHWYDYYYWGQGTQVTVSS | high polyreactivity
27 | QVQLVESGGGLVQAGGSLRLSCAASGIIFVPYAMGWYRQAPGKERELVAANNSGGNTYYADSVKGRFTISRDNAKNTVYLLIYSLKPEDTAVYYCGAYSKYPVFDYNYWGQGTQVTVSS | high polyreactivity
28 | QVQLVESGGGLVQAGGSLRLSCAASGSTISSYAMGWYREAPGKERELVAAIDRSVSTNYADSVKGRFTISRDNAKNTVYLQMNSLKPEDTAVYYCNARHPTDDIVIYDYWGQGTQVTVSS | low polyreactivity
29 | QVQLVESGGGLVQAGGSLRLSCAASGSIFTPNSMGSYRPAPGKERELVAAISSSSDRTYYADSVKGRFTISRDNAKNTVYLQRNSLKPEDTAVYYCAAYAQKRYYWGQGTEVTVSS | high polyreactivity
30 | QVQLLESGGGLVQAGGRLRLSCAASGSIFLWNAMGWYRQAPGKERELVAAITNIGGRTYYADSVKGRFTISRDNAKNTVYLQMNSLKPEDTAVYYCNVVVKGAWDYYPYDYWGQGTQVTVSS | high polyreactivity
31 | QVQLVESGGGLVQAGGSLRLSCAASGRTFYIYAMGWYRQAPGKERELVAAITRGGGSTSYADSVKGRFTISRDNAKNTVYLQMNSLKPEDTAVYYCAARYYFRWRRYDYWGQGTQVTVSS | high polyreactivity
32 | QVQLVESGGGLVQAGGSLRLSCAASGSIFDFYAMGWYRQAPGKERELVAAISWSGGNTYYADSVKGRFTISRDNAKNTVYLQMNSLKPEDTAVYYCNRGSIWRLLTGDFDYWGQGTQVTVSS | low polyreactivity
33 | QVQLVESAGGLVQAGGSLRLSCAASGRTFFRNAMGWYRQAPGKERELVAGITASGGNTYYADSVKGRFTISRDNAKNTVYLQMNSLKPEDTAVYFCNAVYSLARITRAGYGYWGQGPQVTVSS | high polyreactivity
34 | QVQLLESGGGLDQAGGILRLSCASSGRTFNWYAMGWYRQAPGKEREFVAAINWSGGSTYYADSVKGRFTISRDNAKNTVYLQMNSLKPEDTAVYYCNKYPVGYRMYYWGQGTQVTVSS | low polyreactivity
35 | QVQLVESGGGLVQAAGSLRLSCAASGRIFFAYAMGWNRQEPGKERELVASITSGGSTNYADSVKGRFTISRDNAKNTVYLQMNSLKPEDTAVYYCAARSRFSNLYVRFYYWGQGTQVTVSS | high polyreactivity
36 | QVQIVESGGGLVQAGGSLRFSCAASGRTFGTNTMGWYRQAPGKERELVATISSSSGSTYYADSVKGRFTISRDNAKNTVYLQMNSLKPEDTAVYYCAALSRWRYKRYDYWGQGTQVTVSS | high polyreactivity
37 | QVQLVESGGGLVQAGGSLRLSCAASGITFRGYAMGWYRQAPGKERELVAAISSRGGSTYYADSVKGRFTISRDNAKNTVYLQMNSLKPEDTAVYYCNAVSGLYFTYTYDYWGQGTQVTVSS | high polyreactivity
38 | QVQLVESGGGLVQAGGRLRLSCAATGSTFEVYAMGWYRQAPGKERELVAVINVSDGSTYYADSVKGRFTISRDNAKNTVYLQMNSLKPEDTAVYLCAAYLYNRPYQLTGYYDGYGYWGQGTQVTVSS | low polyreactivity
39 | QVLLVESGGGLVQAGGSLRLSCAASGITFGRNTMGWYRQAPGKDRELVAAIDSGGNTYADSVKGRFTISRDNAKNTVSLQMNSRKPEDTAVDYCAVDGGEFSSYGYWGQGTQVTVSS | low polyreactivity
40 | QVQLEESGGGLVQAGGSLRLSCAASGRTFDRYAMGWYRQAPGKERELVAAITWSGGRTYYADSVKGRFTISRDNPKNTVYLQMNSLKPEDTAVYYCATAYYYHGGYYYPYDVDYWGQGTQVTVSS | low polyreactivity
41 | QVQLVESGRGLVQAGGSLRLSCGASGRTFGYYGMVGYRQATGKERELVASISRRGVSTYYADSVKGRFTISRDNAKNTVYLQMNSLKPEDTAVYYCAKDYWGYKYDYWGKGTQVTVSS | high polyreactivity
